Test: yeast display, Sf9 membrane polyspecificity reagent, FACS + sequencing; frameworks hold sequencing errors
Outline: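 Genes from sorted yeast were amplified by colony PCR, read by MiSeq 2 × 250 sequencing and filtered on CDR length. These cells carried a synthetic nanobody library in Saccharomyces cerevisiae BJ5465 and were sorted by FACS into low and high (top ~1%) gates on anti-HA and streptavidin fluorescence. Polyreactivity is labelled according to the gate of origin.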

Sequence	polyreactivity (PSR sort gate)
QVQLVESGGGLVQAGGSLRLICAASGSTFNYNAMGWYRQAPGKERELVAAISSSGGSTYYADSVKGRFTISRDNAKYTVYLQMNSLKREDTAVYYCAASGGYGQYNYWGQGTQVTVSS	low polyreactivity
QVQLVESGGGLVQAGGSLRLSCAASGYIFGRNAMGWYRQAPGKEREFVAAISYSGSSTYYADSVKGRFTISRDNAKNTVYLQMNSLKPEDTAVYYCNAVYYRSRFGTSIRYDYWGQGTQVTVSS	high polyreactivity
QDQLVESGGGLVQAGGSRRLSCAASGSIFIYAMGWYRQAPGNERELVATIDSGGSTNYADSVKGRFTISRDNAKNTFYLQMNSLKPEDTAVYYFAARPYTTYHYVDDYWGQGTQVTVSS	high polyreactivity
QVQLVESGGGLVQGGGSLRLSCAASGSISDVYAMGWYRQAPGKERELVAANTSGASTYYADSVKGRFTISRDNAKNTVYLQMNSLKPEDTAVYYCAADSDSQWGMDYWGQGTQVTVSS	low polyreactivity
QVQLVESGGGLVQAGGSLRLSCAASGSIFSLYAMGWYRQAPGKERELVAAITWTGGSTYYADSVKGRFTISRDNAKNTVYLQMNSLKPEDTAVYYCDARRVVYRYYWYSAYDYWGRGTQVTVSS	high polyreactivity
QVQLVESGGGLVQAGGSLRLSCAASGRIFRYNTIGWYRQAPGKERELVADITSSDSSTNYADSVKGRFTISRDTAKNTVYLQMNSLKPEDTAVYYCNAVIYFKFDWGQGTQVTVSS	low polyreactivity
QVQHVDSGGGLVQEGGSLRLSCAASGRIFTYNAMGWYRQAPGKERELVAAISRRGGTTYYADSVKGRFTISRDNAKNTVYLQMNSLKPEDTAVYYCAAVVYTRGVTSRPVSRYDYWGQGTQVTVSS	high polyreactivity
QVQLVESGGGLVQAGGSLRLSCAASGFISQFYAMGWYRQAPGKERELVAAINWRGDSTYYADSVKGRFTISRDNAKNTVYLQMNSLKPEVTAVYYCAAENWSGYDYWGQGTQVTVSS	high polyreactivity
QVQLVESGGGLVQAGGSLRLSCAASGRTFRDNAMGWYRQAPGKDRELVAAIDIDSSTYYADSVEGRFTISRDNAKNTVYLQMNSLKPEDTAVYYCAAESYHDGKGFPDYEYWGQGTQVTVSS	low polyreactivity
QVQLVESGGGLVQAGGSLRLSCAASGITFTAYAMGWYRQAPGKERELVATINSTGITNYADSVKGRFTISRDNAKNTVYLQMNSLKPEDTAVYYCAADLLDISSYDGMDYWGHGTQVTVSS	low polyreactivity
QVQLVESGGGIVQAGGSLRLSCAASGSTFSYNAMGWYRQAPGKERELVAAISRGGITNYADSVKGRFTISRDNAKNTVYLQMNSLKPEDTAVYYCNAGYLGGPSYEYWGQGTQVTVSS	low polyreactivity
QVQLVESGGGLVQAGGSLRLSCAASGITVYVNVMGWYRQAPGKERELVAGISYSGGSTYYADSVKGRFTISRDNAKNTVYLQMNSLKPEDTAVYYCAADYWYYGSPVSRPYYYWGQGTQVTVSS	high polyreactivity
QVQLVESGGGLVQAGGSLRLSCAASGSIFYWYALGWYRQAPGKERELVADITTSDGRTYYADSVKGRFTISRDNAKNTVNLQMNSLKPEDTAVYYCAADPFSGYGFQYYRGLYYWGQGTQVSVSS	low polyreactivity
QVQLVESVGGLVQAGGSLRLSCAASGFIFRKYVMGLYIQAPGKERELVAAITRSCTSTYYADSVKGRFTISRDNAKNTVYLQMNSLKPEDTAVYYCNVGSDGWYYWGQGTQVTVSS	low polyreactivity
QVQLVESGGGLVQAGGSLRLSCAASGIIFSQYAMGWYRQAPGKERELVASISSGGRTNYADSVKGRFTISRDNAKNTVYLQMNSLKPEDTAVYYCATRYRYKRYAASVQYDYWGQGTQVTVSS	high polyreactivity
QVQLVESGGGLVQAGGSLRLCCAASGLIFRRYTMGWYRQAPGKERELVAAISWRVGRTYYADSVKGRFTISRDNAKNTVYLEMNSLKPEDTAVYYCAAILYQYDTPQVSSSRLDYWGQGTQVTVSS	high polyreactivity
QVQLVESGGGLVQAGGSLRLTCAASGSTLDYYAMGWYRQAPGKERELVAAITQSGASTYYADSVKGRFTISRDNAKNPVYLQMNSLKPEDTAVYYCAAEDYTIYGGEYDYWGQGTQVTVSS	low polyreactivity
QVQLVESGGGLVQAGGSLRLSCAASGRTFATYAMGWYRQAPGKERELVAAISSGGSTYYADSVKGRFTISRDNAKNTVYLQMNSLKPEDTAVYYCAVYVDYYGYGYWGQGTQVTVSS	high polyreactivity
QVQLVESGGRLVQAGCSLRLSCAASGFIFRLYAKGWYRQAPGKERELVAAISDDASTNYADSVKGRFTISRDNAKNTVYLQMNSLKPEDTAVYYCAAAVKRGYAQSFISDGYGYWGEGTQVTVSS	low polyreactivity
QVQLVESGGGLVQAGGSLRLSCAASGSTFGDYAMGWYRQAPGKERELVAAISFSDGSTYYADSVKGRFTISRDNAKNTVYLQMNSLKPEDTAVYYCAKVDYWVYRWYTYDYWGQGTQVTVSS	low polyreactivity
QVQRVESGGGLVQAGGSLRLSCAASGFIFGRYAMGWYRQAPGKERELVAASTWGGDSTYYADSVKGRFTISRDNAKNTVYLQMNSLKPEDTAVYYCAAYPQRRFYWQYRYDYWGQGTQVTVSS	high polyreactivity
QVQLVESGGGLVQAGGSLRLSCAASGSTLSVYVMGWYSQAPGKERELVAAITRGGSTNYADSVKGRFTISRDNAKNTVYLQMISLKPEDTAVYYCAARAFVYYHHGEGSRSGRYYYWGQGTQVTVSS	high polyreactivity

Sequence	polyreactivity (PSR sort gate)
QVQLVESGGGLVQAGGSLRLSCAASVNTFYGYDMGWYRQAPGKEWELVASITLSGDSTYYADSVKGRFTISRDNEKNTVYLQMNSLKPEDTAVYYCAGVYTYPLGYYHYTYAYWGQGTQVTVSS	low polyreactivity
QVQLVESGGGLVQAGGSLRLSCAASGRTFTSYAMGWYRQAPGKERELVAAISGNGVTTYYADSVKGRFTISRDNAKNTLYLQINSLKPEDTAVYYCAAGQRRFGYYYWGQGTQVTVSS	high polyreactivity
QVQLVESGGALVQAGGSLRLSCAASGIILLRYAMGWYRQAPGKERELVAAISYSGGSTYYADSVKGRFTISRDNAKNTVYLQMNSLKPEDTAVYYCNTVGPRRYSYDYWGQGTQVTVSS	high polyreactivity
QVQLVESGGGLVQAGGSLRLSCAASGIIFANNDMGWSRQAPGKERELVAVITFSDGSTYYADSVKGRFTISRDNAKNTVYLQMNSLKPEDTAVYYCATRIRSYYYWGQGTQVTVSS	high polyreactivity
QVHLVVSGGGLVQAGGSLRLSCAASGRTFIRYAMGWYRQAPWKESELVAAITQSGGRTYYADSVKGRFTISRDNAKNTVYLQMNSLIPEDTAVYYCAAIGRYAFYYPRDYWGQGTQVTVSS	high polyreactivity
QVQLVESGGGLVQAGGSLRLSCAASGRTFGYNAMGWYRQAPGTERELVAGITGTGGTTNYADSVKGRFTISRDNAKNTVYLQMNSLKPEDTAVYYCNKDYDVSSEKEPLGYWGQGTQVTVSS	low polyreactivity
QVQLVESGGGLVQAGGSLRLSCAASARIIFRNAMGWYRQAPGKERELVAAITYSGGSTYYADSVKGRFTISRDNAKNTVYLQMNSLKPEDTAVYYCGAGYWFCYSRVTRYDYWGQGTQVTVSS	high polyreactivity
QVQLVESGGGLVQAGGSLRLSCAASGLIFDINAMGWYRQAPGKERELVAAITWRGGSTYYADSVKGRFTISRDNAKNTVYLQMNSLKPEDTAVYYCAAGWSYRNGVGVGDFYYGYDYWGQGTQVTVSS	high polyreactivity
QVQLVESGGGLVQAGGSLRLSCAASGFIFTRNAMGWYRQAPGKERELVAAITSSGGSTYYADSVKGRFTISRDNAKYTVYLQMNCLKPEDTAVYYFAADDIQTYGDDYWGQGTQVTVSS	high polyreactivity
QVQLVESGGGLVQAGGSLRLSCAASGLTFPYYAMGWYRQAPGTERELVAAISGGGRTYYADSVKGRFTISRDNAKNTVYLQMNSLKPEDTAVYYCAPFHVGRYTGTVTDGYDYWGQGTQVTVSS	high polyreactivity
QVQLGESGGGLVQAGGSLRLSCAASGSTFKLYAMGWYRQAPGKERELVAAIRGSGGRTYYADSVKGRFTISRDNAKNTVYLQMNSLKPEDTAVYYCAAAYIGVWKYDSWGQGTQVTVSS	high polyreactivity
QVQLVESGGGLVQAGGSLRLSCAASGGTSQRYVMGWYRQAPGKERELVAAITSTGSTYYADSVKWRFTISRDNAKNTVYLQMNSLKPEDTAVYYCATGRLRIYKSYYWGQGTQVTVSS	high polyreactivity
QVQLVESGGGLVQAGGSLRLSCAASGIIFQRNDMGWYRQAPGKERELVASITSGGSTNYADSVKGRFTISRDNAKNTVYLQMNSLKPEDTAVYYCARVSVSDYDYWGQGTQVTVSS	low polyreactivity
QVQLVESVGGLLQAGGSLRLSCAASGSIFRGYAMGWYRQAPGKERDLVAAISWSGGSTYYADSVKGRFTISRDNAKNTVYLQMNRLKPEDTAVYYCAADRVVFGYWYYYWGQGTQVTVSS	high polyreactivity
QVQLVESGGGLVQAGGSLRLSCAASGFTFYRYAMGWYRQAPGKERELVASIRWGGGSTYYADSVKGRFTISRDNAKNTFYLEMNSLKPEDTAVYYCAAYFGYTVGRYNYWGQGTQVTVSS	high polyreactivity
QVQLVESGGGLVQAGGSLRLSCAASGRIFSVYGMGWYRQAPGKERELVAAMSSSAGSTNYADSVKGRFTISRDNAKNTVYLQMISLKPEDTAVYYCAAYYRRVVYYPTAYYIRKYDYWGQGSQVTVSS	high polyreactivity
QVQLVESGGGLVQAGGSLRLSCAASGFIFCTNAMGWYRQAPGKERELVAGISRTGGRTYYADSVKGRFTISRDNAKNTVYLQMNSLKPEDTAVYYCAAVARRHKVYEYDYWGQGTQVTVSS	high polyreactivity
QVQLVESGGGLVQAGGSLRLSCAASGSTFYPYAMGWYRLAPGKERELVAVISSGGSTNYADSVKGRFTISRDNAKNTVYLQMNSLKPEDTAVYYCAADLAVYYIFLALEFNYWGQGTQVTVSS	low polyreactivity
QVQLVESGGGLVQAGGSLRLSCADSGSIFWLYAMGWYRQAPGKERELVAAIDSGDSTKYADSVKGRFTISRDNAKNTVYLQMNSLKPEDTAVYYCNASRRYHVRAPYDYWGQGTQVTVSS	low polyreactivity
QVQLVESGGGLVQAGGSLRLSCAASGSIIVRNAMGWYRQAPGKERELVAAISKSGGSTYYADSVKGRFTISRDNAKNTVYLQMNSLKPEDTAVYYCAVYPRSTLRTFQRDYWGQGTQVTVSS	high polyreactivity
QVQLVESGGGLVQAGGSLRLSCAASGIIFRPYAMGWYRQAPGKEREMVAAITWSGTSTYYADSVKGRFTISRDNAKNTVYLQMNSLKPEDTAVYYCAATWSYGVSWYEYWGQGTQVTVSS	high polyreactivity

From the nanobody polyreactivity screen of Harvey et al. (2022)
